# US12064464B2, “Plantaricin NC8 alpha beta markedly enhances the effects of antibiotics” (priority 2018, dated 2024)
# “Also recorded” adds a separate entry of the source. Read-outs that look alike come from different tables or passages of the source.
# How the values were obtained:
# S. epidermidis = test: Aggregation and ATP release; format: cell-based, Staphylococcus epidermidis
# Experimental: Aggregation and extracellular release of ATP were used to study the effects of PLNC8 αβ on the bacteria. ATP was registered using a luciferin/luciferase bioluminescence assay (Sigma, St. Louis, Mo, USA) in bacterial suspensions (2.5×10^8 CFU/ml). The bacteria were exposed to different concentrations of PLNC8 αβ, and real-time changes in light transmission and bioluminescence were recorded in a Chronolog lumi-aggregometer (Chrono-Log, Haverton, PA, USA) for 30 min. The levels of ATP were calculated based on the bioluminescence signals recorded in response to known concentrations of ATP.
# [1] = test system: S. epidermidis ATCC 12228; test: Sytox Green uptake (membrane permeabilization); format: cell-based, Staphylococcus epidermidis; details: 5 μM
# Experimental: The fluorescent dye Sytox® Green, which can only cross damaged membranes and fluoresce upon binding to nucleic acids, was used to study the antimicrobial activity of PLNC8 αβ on S. epidermidis, S. aureus (MSSA, MRSA) and Streptococcus spp. The bacteria were washed and resuspended in Krebs-Ringer Glucose buffer (KRG) (120 mM NaCl, 4.9 mM KCl, 1.2 mM MgSO4, 1.7 mM KH2PO4, 8.3 mM Na2HPO4, and 10 mM glucose, pH 7.3) and incubated in the presence or absence of different combinations of PLNC8 αβ in 96-well microtiter plates for 2 min. Images were captured with Olympus BX41 at 40× magnification.
# [2] = Fluorescence leakage assay (CF release from liposomes); details: after 2 min; both the L-form and D-form
# Experimental: Liposomes were prepared by dry film formation, hydration and finally extrusion through a polycarbonate membrane to form monodisperse large unilamellar vesicles. […] A dry lipid film was formed by evaporation of the chloroform by nitrogen flow and overnight lyophilization. The film was hydrated with either 10 mM phosphate buffer (PB) pH 7 or 10 mM phosphate buffer saline (PBS) pH 7, and the solution was vortexed for 1 min and put on a shaker for 1 h before extruded 21 times through a 100 nm pore-sized polycarbonate membrane. For fluorescence leakage assay the lipid film was hydrated with buffer (PBS) containing self-quenching concentration (50 mM) of 5(6)-carboxyfluorescein (CF) (Sigma Aldrich) and liposomes were prepared as described above. Removal of unencapsulated CF was done by gel filtration using a PD-25 column (GE Healthcare, Uppsala, Sweden) and liposomes with encapsulated CF were eluted with PBS. Leakage of the liposome encapsulated fluorophore CF due to additions of the bacteriocins was recorded using a fluorescence plate reader (Infinite 200, Tecan, Austria) where λex=485 nm and λem=520 nm. CF was encapsulated at self-quenching concentration, and CF release results in an increased fluorescence signal. […] In order to estimate the maximum release from each sample a final addition of 0.5% Triton X-100 was made at the end of all measurements and the total amount of CF (100% release) was estimated after 15 min incubation. The CF release is presented as percentage release for each time interval (measurements taken every minute). The percentage CF release is calculated as 100×(F−F0)/(FT−F0) where F0 is the initial fluorescence intensity of CF before peptide addition, F is the fluorescence intensity of CF at time point t and FT is the maximum fluorescence after the addition of Triton X-100.
# Escherichia coli = test: Broth microdilution MIC/MBC; format: cell-based; details: for MBC / MIC: peptide alone
# From the text: (§1) Staphylococcus aureus CCUG 35601 (MRSA, Culture Collection, University of Gothenburg) and Staphylococcus aureus ATCC 29213 (MSSA, ATCC, Manassas, VA). Staphylococcus epidermidis ATCC 12228 (ATCC, Manassas, VA), RP62A, N15 and 10 clinical isolates of Staphylococcus epidermidis that have previously been characterized. Isolated Escherichia coli, Enterococcus faecium (including VRE), Pseudomonas aeruginosa, Klebsiella pneumoniae, Enterobacter spp and Acinetobacter baumannii were obtained from Orebro University hospital. Isolated Streptococcus mutans, Streptococcus constellatus and Streptococcus anginosus were obtained from Malmo University. The bacteria were grown on Luria-Bertani (LB) agar plates, supplemented with 5% defibrinated horse blood, and incubated at 37° C. overnight. Single colonies were inoculated into 5 ml of LB broth and incubated on a shaker (300 rpm) at 37° C. overnight. The bacterial concentration was determined by viable count and adjusted to correlate with approximately 10^9 CFU/ml.
# (§2) The broth microdilution method was used to determine minimal inhibitory concentration (MIC) and minimal bactericidal concentration (MBC). Two-fold serial dilutions of the peptides were used and the final concentrations ranged from 0.097-50 μM. […] The effect of bacteriocin-antibiotic combinations was accomplished by using the same concentration series of antibiotics with a constant concentration of PLNC8 αβ (3.1 μM) in all the wells. […] All experiments were repeated at least three times.
# Pseudomonas aeruginosa = test: Broth microdilution MIC/MBC; format: cell-based; details: for MBC / MIC: P. aeruginosa, peptide alone
# From the text: as §1, §2
# Enterococcus faecium = test: Broth microdilution MIC/MBC; format: cell-based; details: for MBC / MIC: peptide alone
# From the text: as §1, §2
# [3] = test system: S. aureus CCUG 35601 (MRSA); test: Broth microdilution MIC/MBC; format: cell-based, Staphylococcus aureus
# From the text: as §1, §2
# [4] = test system: S. aureus ATCC 29213 (MSSA); test: Broth microdilution MIC/MBC; format: cell-based, Staphylococcus aureus; details: Table 1, peptide alone, 20 h; no unit in table, μM
# From the text: as §1, §2
# [5] = ESBL-producing E. coli, first isolate
# [6] = ESBL-producing E. coli, second isolate
# [7] = Non-ESBL E. coli, first isolate
# [8] = Non-ESBL E. coli, second isolate
# [9] = Vancomycin resistant E. faecium (VRE)
# [10] = Table 1, peptide alone, 20 h, no unit in table, μM
molecule,measurement,setting,value
PLNC8 αβ: two-peptide class IIb bacteriocin of L. plantarum NC8: PLNC8 α (SEQ ID NO 1) with PLNC8 β (SEQ ID NO 2) (Lactobacillus plantarum NC8) alpha: DLTTKLWSSWGYYLGKKARWNLKHPYVQF beta: SVPTSVYTLGIKILWSAYKHRKTIEKSFNKGFYH,release of ATP (bacterial lysis),S. epidermidis,dose-dependent release of ATP
same,aggregation of bacteria,S. epidermidis; low concentrations,bacteria aggregates when exposed to low concentrations
same,perturbation of the plasma membrane of S. epidermidis,[1],equally rapid (2 min)
same,lysis of liposomes,[2],complete lysis of liposomes after 2 min
same,effect of peptide alone on Escherichia coli,Escherichia coli,permeabilized and killed
same,effect of sub-MIC peptide on antibiotics,Escherichia coli,significantly enhanced the effects of different antibiotics
same,MBC,Escherichia coli; [5],>50 µM
same,MIC,Escherichia coli; [5],>50 µM
same,MBC,Escherichia coli; [6],>50 µM
same,MIC,Escherichia coli; [6],>50 µM
same,MBC,Escherichia coli; [7],>50 µM
same,MIC,Escherichia coli; [7],>50 µM
same,MBC,Escherichia coli; [8],>50 µM
same,MIC,Escherichia coli; [8],>50 µM
same,effect of peptide alone on Escherichia coli,Escherichia coli; listed as PLNC8αβ,did not affect the growth; also recorded: does not affect the growth
same,effect of peptide alone on Pseudomonas aeruginosa,Pseudomonas aeruginosa,permeabilized and killed
same,effect of sub-MIC peptide on antibiotics,Pseudomonas aeruginosa,enhanced the effects of different antibiotics
same,MBC,Pseudomonas aeruginosa; first isolate,>50 µM
same,MIC,Pseudomonas aeruginosa; first isolate,>50 µM
same,MBC,Pseudomonas aeruginosa; second isolate,>50 µM
same,MIC,Pseudomonas aeruginosa; second isolate,>50 µM
same,effect of peptide alone on Pseudomonas aeruginosa,Pseudomonas aeruginosa; listed as PLNC8αβ,did not affect the growth; also recorded: does not affect the growth
same,effect of peptide alone on Enterococcus faecium,Enterococcus faecium,permeabilized and killed
same,effect of sub-MIC peptide on antibiotics,Enterococcus faecium,significantly enhanced the effects of different antibiotics
same,MBC,"Enterococcus faecium; E. faecium, first isolate",6.25 µM
same,MIC,"Enterococcus faecium; E. faecium, first isolate",6.25 µM
same,MBC,"Enterococcus faecium; E. faecium, second isolate",6.25 µM
same,MIC,"Enterococcus faecium; E. faecium, second isolate",3.1 µM
same,MBC,Enterococcus faecium; [9],25 µM
same,MIC,Enterococcus faecium; [9],3.1 µM
same,effect of peptide alone on Enterococcus faecium,Enterococcus faecium; listed as PLNC8αβ,both inhibitory and bactericidal
same,MBC,[3]; [10],25 µM
same,MIC,[3]; [10],12.5 µM
same,MBC,"[3]; Table 3, MRSA, peptide alone",25 µM
same,MIC,"[3]; Table 3, MRSA, peptide alone",12.5 µM
same,MBC,[4],25 µM
same,MIC,[4],12.5 µM
